# Results reported in publication PMC4685008.
# What was measured:
# [1] = target: mGluR5 (endogenous) (UniProt Q3UVX5); test: co-IP of myc-Homer; conditions: reference: H2WT replacement; sites S117,S216
# [2] = target: mGluR5 (endogenous) (UniProt Q3UVX5); test: co-IP with myc antibody, mGluR5 blot
substance,measurement,setting,value
Homer2 (H2) (from UniProt Q9QWW1) H2S117/216AA replacement,binding against the reference,[1],stronger
Homer2 (H2) (from UniProt Q9QWW1) H2mycS117/216AA,binding against the reference,"[2]; reference: H2mycWT, sites S117,S216",stronger
"Homer1 (H1, long form) (from UniProt Q9Z2Y3) H1mycS117A",binding against the reference,"[2]; reference: H1mycWT, sites S117",stronger
